Results on two proteins are retold here after PMC3061879, “Crystal Structure of a Coiled-Coil Domain from Human ROCK I” (PLoS ONE, 2011).

Series [1] concerns the molecule itself. The series is described as follows: SEC-MALS; Superdex 200 in 20 mM Hepes pH 7.5, 150 mM NaCl, 2 mM TCEP; Wyatt miniDAWN TREOS three-angle light scattering detector and Optilab-rEX refractive index detector. In general terms: SEC sorts molecules by how far they enter the pores of the column.
Series [2] deals with the molecule itself. The series is described as follows: crystal structure; SeMet ROCK (535–700), space group P4(3)2(1)2; 13% MPD, 100 mM NaCl, 100 mM sodium acetate pH 4.9, 10 mM DTT, 5% glycerol, 10 mM spermidine; SAD phasing; four molecules (2 dimers) per asymmetric unit.

B1: ROCK (535–704), coiled-coil fragment of human ROCK I (domain or fragment, UniProt Q13464 535-704, looked up)
chain: LANEKLSQLQKQLEEANDLLRTESDTAVRLRKSHTEMSKSISQLESLNRELQERNRILENSKSQTDKDYYQLQAILEAERRDRGHDSEMIGDLQARITSLQEEVKHLKHNLEKVEGERKEAQDMLNHSEKEKNNLEIDLNYKLKSLQQRLEQEVNEHKVTKARLTDKHQS
notes: Rho-associated kinase ROCK I (p160 ROCK), human, residues 535-704 of the central coiled-coil domain; The purification is described only for ROCK (535–700); also called ROCK-CC (as called in the text and legend title of the SEC-MALS experiment); source: E. coli Rosetta2 (DE3), purified
For the protein B1, the “stoichiometry N” value in series [1] turned out to be 2.

B2: ROCK coiled-coil domain (ROCK-CC, residues 535–700) of human ROCK I (domain or fragment, UniProt Q13464 535-700, looked up)
chain: LANEKLSQLQKQLEEANDLLRTESDTAVRLRKSHTEMSKSISQLESLNRELQERNRILENSKSQTDKDYYQLQAILEAERRDRGHDSEMIGDLQARITSLQEEVKHLKHNLEKVEGERKEAQDMLNHSEKEKNNLEIDLNYKLKSLQQRLEQEVNEHKVTKARLTD
modifications: selenomethionine (SeMet) substituted protein in the crystals used for the structure
notes: Rho-associated kinase ROCK I (p160 ROCK), human, residues 535-700 of the central coiled-coil domain; The model holds residues 542–693 (A), 541–692 (B), 535–692 (C), 535–693 (D); also called ROCK (535–700); p160 ROCK (535–700); source: E. coli Rosetta2 (DE3), purified (Ni-NTA, TEV cleavage, cation exchange HiTrap SP); not shown: 6xHistidine-TEV, N-terminal, cleaved
In the case of B2, the binding result in series [2] is “binds”.

As usually defined, the stoichiometry N is the number of molecules, sites or subunits per partner or assembly.
